Assay results as given in patent US20240368267A1 (KODIAK SCIENCES, published 2024).

Tests used:
[1] = target: VEGF (UniProt P15692-4 27-191, limits assumed); assay: cell-based or functional assay
[2] = target: T1, recombinant human IL-6 (human, UniProt P05231 30-212); assay: Biacore at 37 C, antibody captured on Protein A, IL-6 as analyte
T1 construct: bought protein; also called interleukin-6
T1 sequence (P05231 30-212 limits assumed): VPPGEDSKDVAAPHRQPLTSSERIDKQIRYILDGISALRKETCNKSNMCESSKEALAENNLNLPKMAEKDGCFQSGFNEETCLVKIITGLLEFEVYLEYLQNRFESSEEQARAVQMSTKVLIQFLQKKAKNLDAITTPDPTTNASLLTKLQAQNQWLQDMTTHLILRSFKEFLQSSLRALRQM

Chain of VEGF (P15692 other isoform, or with tags, fused parts or gaps limits assumed): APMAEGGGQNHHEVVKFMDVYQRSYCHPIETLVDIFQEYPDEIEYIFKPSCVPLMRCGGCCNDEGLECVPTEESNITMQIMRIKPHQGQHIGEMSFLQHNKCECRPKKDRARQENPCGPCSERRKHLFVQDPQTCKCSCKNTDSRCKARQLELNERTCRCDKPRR

| Binder | cell-based VEGF stimulated VEGFR reporter assay (KDR/VEGF HEK293 cells, luminescence), IC50 [1] [nM] | fold increase in affinity relative to the wild-type heavy chain [2] [fold] |
| --- | --- | --- |
| VEGFR-AntiIL6 (heavy chain of sequences 1A-2A-3H, light chain of sequence 4A) (bispecific antibody) fusion: SDTGRPFVEMYSEIPEIIHMTEGRELVIPCRVTSPNITVTLKKFPLDTLIPDGKRIIWDSRKGFIISNATYKEIGLLTCEATVNGHLYKTNYLTHRQTNTIIDVVLSPSHGIELSVGEKLVLNCTARTELNVGIDFNWEYPSSKHQHKKLVNRDLKTQSGSEMKKFLSTLTIDGVTRSDQGLYTCAASSGLMTKKNSTFVRVHEKGGGGSGGGGSEVQLVESGGGLVQPGGSLRLSCAASGFTFSPFAISWVRQAPGKGLEWVAKISPGGSWTYYSDTVTDRFTFSLDTSKSTAYLQMNSLRAEDTAVYYCARQLWGYYALDVWGQGTLVTVSSASTKGPSVFPLAPSSKSTSGGTAALGCLVKDYFPEPVTVSWNSGALTSGVHTFPAVLQSSGLYSLSSVVTVPSSSLGTQTYICNVNHKPSNTKVDKKVEPKSCDKTHTCPPCPAPEAAGAPSVFLFPPKPKDTLMISRTPEVTCVVVDVSHEDPEVKFNWYVDGVEVHNAKTKPREEQYNSTYRVVSVLTVLHQDWLNGKEYKCKVSNKALPAPIEKTISKAKGQPREPQVYTLPPSREEMTKNQVSLTCLVKGFYPSDIAVEWESNGQPENNYKTTPPVLDSDGSFFLYSKLTVDKSRWQQGNVFSCSVMHEALHNHYTQKSLSCSPGK light: DIQLTQSPSSLSASVGDRVTITCSASISVSYLYWYQQKPGKAPKLLIYDDSSLASGVPSRFSGSGSGTDFTLTISSLQPEDFATYYCQQWSGYPYTFGQGTKVEIKRTVAAPSVFIFPPSDEQLKSGTASVVCLLNNFYPREAKVQWKVDNALQSGNSQESVTEQDSKDSTYSLSSTLTLSKADYEKHKVYACEVTHQGLSSPVTKSFNRGEC | 0.18 | – |
| anti-IL-6 antibody, heavy chain S35H, G66D, light chain M32L/M50D/N52S/M88Q (antibody, human IgG1, V domains shown, engineered human IgG1 as m23; also called S35H G66D double mutant with mutagenized light chain) VH: EVQLVESGGGLVQPGGSLRLSCAASGFTFSPFAMHWVRQAPGKGLEWVAKISPGGSWTYYSDTVTDRFTFSLDTSKSTAYLQMNSLRAEDTAVYYCARQLWGYYALDIWGQGTLVTVSS VL: DIQLTQSPSSLSASVGDRVTITCSASISVSYLYWYQQKPGKAPKLLIYDDSSLASGVPSRFSGSGSGTDFTLTISSLQPEDFATYYCQQWSGYPYTFGQGTKVEIK | – | ~1.3 |
| anti-IL-6 antibody, heavy chain S35H, G66D, light chain wild-type (antibody, human IgG1, V domains shown, engineered human IgG1 as m23; also called S35H G66D double mutant) VH: EVQLVESGGGLVQPGGSLRLSCAASGFTFSPFAMHWVRQAPGKGLEWVAKISPGGSWTYYSDTVTDRFTFSLDTSKSTAYLQMNSLRAEDTAVYYCARQLWGYYALDIWGQGTLVTVSS VL: DIQLTQSPSSLSASVGDRVTITCSASISVSYMYWYQQKPGKAPKLLIYDMSNLASGVPSRFSGSGSGTDFTLTISSLQPEDFATYYCMQWSGYPYTFGQGTKVEIK | – | ~2 |
